Source: US20230235054A1 (BIOATLA, published 2023)
Where a chain is given by its changes, count along the chain named. One block for each binder: values may come before it.

Tests used:
[1] = molecular target: T1, human Nectin-4-mFc (human, UniProt Q96NY8 32-349); test: bridging ELISA, human CD3 coated, detection with human Nectin-4-mFc and anti-mouse IgG HRP, tumor pH (pH 6.0 in the protocol)
T1 construct: extracellular domain; Detection reagent of the bridging ELISA; also called recombinant human Nectin-4 ECD; not shown: mFc (mouse Fc)
T1 sequence (looked up): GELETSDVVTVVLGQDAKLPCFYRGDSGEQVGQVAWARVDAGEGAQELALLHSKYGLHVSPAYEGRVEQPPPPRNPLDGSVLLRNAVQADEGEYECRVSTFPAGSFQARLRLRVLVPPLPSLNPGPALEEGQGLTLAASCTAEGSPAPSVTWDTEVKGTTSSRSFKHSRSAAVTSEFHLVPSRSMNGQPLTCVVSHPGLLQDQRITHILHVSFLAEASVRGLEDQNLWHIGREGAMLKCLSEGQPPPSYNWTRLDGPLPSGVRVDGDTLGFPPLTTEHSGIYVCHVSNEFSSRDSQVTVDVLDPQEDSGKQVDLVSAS

[2] = molecular target: T2, CD3 epsilon/delta heterodimer protein (human, UniProt P07766 23-126; P04234 22-105); test: bridging ELISA, human CD3 coated, bispecific titrated, detection with human Nectin-4-mFc and anti-mouse IgG HRP, tumor pH (pH 6.0 in the protocol); the signal needs both arms
T2 construct: Capture antigen of the bridging ELISA; also called human CD3; recombinant human CD3 antigen
T2 sequence (P07766 23-126, stated change not applied, chain 1 of 2): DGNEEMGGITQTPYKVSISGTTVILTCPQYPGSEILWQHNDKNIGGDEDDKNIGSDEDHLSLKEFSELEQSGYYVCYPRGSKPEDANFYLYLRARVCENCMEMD
T2 sequence (P04234 22-105, stated change not applied, chain 2 of 2): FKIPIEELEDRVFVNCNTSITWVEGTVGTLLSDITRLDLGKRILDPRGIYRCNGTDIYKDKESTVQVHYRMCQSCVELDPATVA
Method: (§1) 1) Coat ELISA plates with 100 μL of 0.5 μg/mL recombinant human CD3 antigen in carbonate-bicarbonate coating buffer. 2) Cover plates with sealing film and incubate overnight at 4° C. 3) Decant plates and tap out residual liquid on a stack of paper towels. 4) Wash wells twice by dispensing 200 μL of pH 6.0 or pH 7.4 ELISA incubation buffer to the wells and completely aspirate the contents. 5) Add 200 μL of pH 6.0 or pH 7.4 ELISA incubation buffer to the wells. Cover with sealing film and place the plate onto a plate shaker set to 50 rpm for 60 minutes at room temperature. 6) Decant plates and tap out residual liquid on a stack of paper towels. 7) Serially dilute test articles in 3-fold dilutions starting at 3000 ng/mL in pH 6.0 or pH 7.4 ELISA incubation buffer. 8) Add 100 μL/well of diluted test articles to the plates 9) Cover with sealing film and place the plates onto a plate shaker set to 50 rpm for 60 minutes at room temperature. 10) Decant plates and tap out residual liquid on a stack of paper towels. 11) Wash wells three times by dispensing 200 μL of pH 6.0 or pH 7.4 ELISA wash buffer to the wells and completely aspirate the contents. 12) Dilute the HRP secondary antibody at 1:2500 in pH 6.0 or pH 7.4 ELISA incubation buffer. […] Read plates at 450 nm using PerkinElmer, EnSpire 2300 Multilabel Reader.

[3] = molecular target: T2, CD3 epsilon/delta heterodimer protein; test: bridging ELISA, human CD3 coated, bispecific titrated, detection with human Nectin-4-mFc and anti-mouse IgG HRP, physiological pH (pH 7.4 in the protocol); the signal needs both arms
Method: as §1

binding result [1]: binds
EC50 (read off the curve) [2]: ~0.05 µg/mL
EC50 (read off the curve) [3]: ~0.03 µg/mL
B1: WT Nectin4 × WT CD3 (bispecific antibody)
VH: EVQLVESGGGLVQPGGSLRLSCAASGFTFSSYNMNWVRQAPGKGLEWVSYISSSSSTIYYADSVKGRFTISRDNAKNSLSLQMNSLRDEDTAVYYCARAYYYGMDVWGQGTTVTVSS
light: DIQMTQSPSSVSASVGDRVTITCRASQGISGWLAWYQQKPGKAPKFLIYAASTLQSGVPSRFSGSGSGTDFTLTISSLQPEDFATYYCQQAQSFPPTFGGGTKVEIKRTVAAPSVFIFPPSDEQLKSGTASVVCLLNNFYPREAKVQWKVDNALQSGNSQESVTEQDSKDSTYSLSSTLTLSKADYEKHKVYACEVTHQGLSSPVTKSFNRGECSRSGGGGEVQLVESGGGLVQPGGSLRLSCAASGFTFNTYAMNWVRQAPGKGLEWVARIRSKYNNYATYYADSVKDRFTISRDDSKNSLYLQMNSLKTEDTAVYYCVRHGNFGNSYVSWFAYWGQGTLVTVSSGGSGGSGGSGGSGGQAVVTQEPSLTVSPGGTVTLTCRSSTGAVTTSNYANWVQQKPGQAPRGLIGGTNKRAPWTPARFSGSLLGGKAALTITGAQAEDEADYYCALWYSNLWVFGGGTKLTVLSR
notes: elsewhere it is called a light chain variable region that also carries six anti-CD3 CDRs; also called BA-150-19-01-01-BF1; benchmark

binding result [1]: binds
EC50 (read off the curve) [2]: ~0.03 µg/mL
EC50 (read off the curve) [3]: ~0.2 µg/mL
B2: CAB Nectin4 × CAB CD3 (bispecific antibody)
VH: B1 VH with V106K
light: B1 light with L33E, G326P, Y329K, A334Q, A395D
notes: elsewhere it is called a light chain variable region that also carries six anti-CD3 CDRs; also called BA-150-30-03-12-BF19
